# Test results taken from patent US20260265409A1, “ANTIBODY FUSION PROTEIN TARGETING FAP AND TGFbeta, AND USE THEREOF” (NANJING LEADS BIOLABS CO., LTD., priority 2022, published 2026).
# B1: huF19-LG-NGR: mutant of huF19-LG with G56R (Kabat) in heavy chain CDR2; VH SEQ ID NO: 21, VL SEQ ID NO: 15 (antibody, V domains shown)
# VH: QVQLVQSGAEVKKPGASVKVSCKASGYTFTEYTIHWVRQATGQGLEWIGGINPNNRIPNYNQKFKGRATMTVGTSISTAYMELSSLRSEDTAVYFCARRRIAYGYDEGHAMDYWGQGTLVTVSS
# VL: DIQMTQSPSSLSASVGDRVTITCKSSQSLLYSRNQKNYLAWFQQKPGKAPKLLIFWASTRESGVPSRFTGSGFGTDFTLTISSLQPEDFATYYCQQYFSYPLTFGQGTKLEIK
# Key:
# [1] = Stability at 40° C., purity by SEC; type: physicochemical; settings: for Purity by SEC, %: mutant antibody storage stability
# Procedure: The purified antibodies were concentrated, and sterile filtration was performed. The purity of the antibodies was determined by size exclusion chromatography (SEC). Specifically, the samples were loaded at 20 μg onto a TSK G3000SWXL column using 100 mM sodium phosphate+100 mM Na2SO4 (pH 7.0) as a running buffer for 30 min. The collected effluent was measured using the Agilent 1220 HPLC system and the data were analyzed using OpenLAB software.
# The huF19-LG antibody was tested for stability at 40° C. ELISA (see Example 1.2) and SEC (see Example 1.1) were conducted at 0 weeks (OW), 2 weeks (2W), or 4 weeks (4W) with the results shown as follows:
# The activity and purity of the molecule were determined by SEC after storage. See Example 1.5 for the specific procedures.
# [2] = molecular target: T1, human FAP protein expressed on 293T cells (Homo sapiens, UniProt Q12884); assay: Cell binding assay by flow cytometry, 293T-human FAP cells
# T1 construct: expressed in transfected cells; host or cells: 293T cells, PIRES-puro3 vector, puromycin selection
# T1 sequence (Q12884 1-760): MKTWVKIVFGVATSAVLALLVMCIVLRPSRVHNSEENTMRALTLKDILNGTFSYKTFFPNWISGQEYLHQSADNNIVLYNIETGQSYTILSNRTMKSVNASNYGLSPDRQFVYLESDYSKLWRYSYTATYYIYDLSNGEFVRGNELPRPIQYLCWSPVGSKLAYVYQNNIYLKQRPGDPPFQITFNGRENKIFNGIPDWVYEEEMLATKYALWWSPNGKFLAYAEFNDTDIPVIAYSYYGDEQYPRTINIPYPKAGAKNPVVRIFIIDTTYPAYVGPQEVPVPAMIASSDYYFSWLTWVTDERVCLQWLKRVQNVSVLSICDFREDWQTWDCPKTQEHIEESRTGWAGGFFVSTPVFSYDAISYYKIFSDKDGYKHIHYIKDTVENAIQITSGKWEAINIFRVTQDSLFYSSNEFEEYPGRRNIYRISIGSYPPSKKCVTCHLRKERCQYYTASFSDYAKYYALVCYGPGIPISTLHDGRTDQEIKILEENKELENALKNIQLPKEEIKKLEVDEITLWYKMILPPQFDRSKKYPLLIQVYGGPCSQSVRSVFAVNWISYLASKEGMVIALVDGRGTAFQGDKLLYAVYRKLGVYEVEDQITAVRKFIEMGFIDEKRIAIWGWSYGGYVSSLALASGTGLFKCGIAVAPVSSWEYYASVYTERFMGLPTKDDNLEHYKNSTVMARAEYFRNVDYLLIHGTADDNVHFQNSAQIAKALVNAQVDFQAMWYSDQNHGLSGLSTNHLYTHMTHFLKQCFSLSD
# Procedure: (§1) Whether the humanized antibody of the present disclosure can bind to human FAP protein stably expressed on the surface of 293T cells was determined by a cell binding assay. Firstly, the sequences encoding human FAP protein (NM_004460.2, SEQ ID NO: 31) and cynomolgus FAP (XM_005573320.2, SEQ ID NO: 32) were cloned into expression vector PIRES-puro3 (Clontech, Cat #631619) […]. The vectors were used to transfect 293T cells. […]
# (§2) The human FAP antibodies (huF19-LG and sibrotuzumab) were 4-fold serially diluted from a starting concentration of 200 nM to a total of 8 concentrations and added to the cells for co-incubation at 4° C. for 30 min. […] The cells were washed twice with PBS and then resuspended, and finally, fluorescence signals were detected using the […] (BD Bioscience) flow cytometer.
# Whether the mutant antibody in the present disclosure can bind to human or cynomolgus FAP protein stably expressed on the surface of 293T cells was determined by a cell binding assay. […] The cells were washed twice with PBS and then resuspended, and finally, fluorescence signals were detected using the […] (BD Bioscience) flow cytometer. […]
# murine FAP = molecular target: T2, murine FAP (Mus musculus, UniProt P97321); assay: Binding to murine FAP
# T2 sequence (P97321 1-761): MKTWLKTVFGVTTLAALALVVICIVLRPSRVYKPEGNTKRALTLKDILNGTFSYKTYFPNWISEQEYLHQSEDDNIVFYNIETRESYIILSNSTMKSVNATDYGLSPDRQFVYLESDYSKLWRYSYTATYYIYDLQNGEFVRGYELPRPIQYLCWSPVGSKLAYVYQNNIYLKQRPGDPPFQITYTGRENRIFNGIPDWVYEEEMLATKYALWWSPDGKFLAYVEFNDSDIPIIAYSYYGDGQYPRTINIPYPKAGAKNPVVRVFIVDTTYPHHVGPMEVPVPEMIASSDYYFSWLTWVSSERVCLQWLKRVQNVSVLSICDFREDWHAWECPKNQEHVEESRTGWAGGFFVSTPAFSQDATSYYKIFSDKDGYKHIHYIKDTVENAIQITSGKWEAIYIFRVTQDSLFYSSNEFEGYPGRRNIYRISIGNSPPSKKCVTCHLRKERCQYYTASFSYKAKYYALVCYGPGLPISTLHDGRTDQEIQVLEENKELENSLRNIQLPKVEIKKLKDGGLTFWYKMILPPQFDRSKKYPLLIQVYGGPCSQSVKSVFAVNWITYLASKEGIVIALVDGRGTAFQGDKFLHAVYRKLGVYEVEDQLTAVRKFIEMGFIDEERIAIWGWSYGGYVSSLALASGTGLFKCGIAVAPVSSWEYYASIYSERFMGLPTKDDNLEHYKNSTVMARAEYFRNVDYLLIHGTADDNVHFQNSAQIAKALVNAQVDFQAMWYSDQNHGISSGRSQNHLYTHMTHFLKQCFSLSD
# [3] = test system: cynomolgus FAP protein expressed on 293T cells; assay: Cell binding assay by flow cytometry, 293T-cynomolgus FAP cells
# Procedure: as §1, §2
# Whether the mutant antibody in the present disclosure can bind to human or cynomolgus FAP protein stably expressed on the surface of 293T cells was determined by a cell binding assay. […] The cells were washed twice with PBS and then resuspended, and finally, fluorescence signals were detected using the […] (BD Bioscience) flow cytometer.
# cynomolgus FAP protein expressed on 293T cells, sequence (as listed by the source): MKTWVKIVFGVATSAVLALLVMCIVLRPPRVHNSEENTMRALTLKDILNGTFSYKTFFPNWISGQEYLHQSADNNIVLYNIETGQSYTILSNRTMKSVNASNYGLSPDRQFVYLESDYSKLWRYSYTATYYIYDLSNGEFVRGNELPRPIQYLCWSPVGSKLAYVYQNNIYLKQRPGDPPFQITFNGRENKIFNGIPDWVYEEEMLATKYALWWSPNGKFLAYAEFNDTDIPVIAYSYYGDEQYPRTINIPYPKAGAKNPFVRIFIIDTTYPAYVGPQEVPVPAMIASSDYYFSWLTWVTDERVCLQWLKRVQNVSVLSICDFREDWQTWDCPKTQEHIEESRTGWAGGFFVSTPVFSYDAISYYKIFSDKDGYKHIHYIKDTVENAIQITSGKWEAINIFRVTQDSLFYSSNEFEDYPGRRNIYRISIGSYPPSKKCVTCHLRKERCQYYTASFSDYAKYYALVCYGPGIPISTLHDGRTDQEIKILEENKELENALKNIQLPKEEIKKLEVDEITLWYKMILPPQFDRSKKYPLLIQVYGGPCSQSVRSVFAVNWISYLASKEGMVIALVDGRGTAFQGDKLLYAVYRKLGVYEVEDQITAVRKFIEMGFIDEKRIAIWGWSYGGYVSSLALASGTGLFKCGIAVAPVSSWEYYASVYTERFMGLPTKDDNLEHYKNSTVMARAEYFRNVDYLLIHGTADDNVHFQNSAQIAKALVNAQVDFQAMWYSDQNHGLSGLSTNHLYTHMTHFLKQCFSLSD
molecule,measurement,setting,value
B1,change in purity by SEC during storage,[1]; 0 to 4 weeks,did not exhibit significant changes in purity
same,"Purity by SEC, %",[1]; 0 weeks,99.2%
same,"Purity by SEC, %",[1]; 2 weeks,99.1%
same,"Purity by SEC, %",[1]; 4 weeks,99.1%
same,binding to human FAP protein expressed on engineered 293T cells (FACS),[2],"can bind to human FAP protein and cynomolgus FAP protein expressed on engineered 293T cells, with the binding capacities comparable to those of the antibody before mutation"
same,binding to murine protein,murine FAP,cannot bind to murine protein
same,binding to cynomolgus FAP protein expressed on engineered 293T cells (FACS),[3],"can bind to human FAP protein and cynomolgus FAP protein expressed on engineered 293T cells, with the binding capacities comparable to those of the antibody before mutation"
